Test results published in PMC6354057 (Molecules and Cells, 2019).

Target: the molecule itself
Assay: crystal structure

B1: Histidine triad nucleotide-binding protein (HINT) from Candida albicans (enzyme, UniProt Q59WG0 1-152, looked up)
chain: MASHASCIFCKIIKGEIPSFKLIETAKTYSFLDIQPIAEAHVLIIPKHHGAKLHNIPDDYLSDILPVVKKLTKVLKLDENNTPEGEGYNVLQNNGRIAHQVVDHVHFHLIPKKDEATGLGVGWPAEATDFDKLGKLHEKLKEELAKVDNEKL
  stoichiometry N: 2
